Results reported in patent publication US20240270846A1 (published 2024).

Molecular target: T1, CD3 epsilon homodimer protein (UniProt P07766 23-126)
T1 construct: also called CD3 (CD3 epsilon)
Assay: SPR, Biacore T200, CD3 epsilon homodimer immobilized on CM4, one-arm antibody as analyte, 25 degrees C
Method: An appropriate amount of CD3 epsilon homodimer protein was immobilized onto Sensor chip CM4 (GE Healthcare Japan Corp.) by the amine coupling method. Then, the antibody having an appropriate concentration was injected thereto as an analyte and allowed to interact with the CD3 epsilon homodimer protein on the sensor chip. Then, the sensor chip was regenerated by the injection of 10 mmol/L glycine-HCl (pH 1.5). The assay was conducted at 25 degrees C., and HBS-EP+(GE Healthcare Japan Corp.) was used as a running buffer. […] Each parameter was calculated using Biacore T200 Evaluation Software (GE Healthcare Japan Corp.).
Specifically, when the amount of the GLS3000-containing antibody bound was defined as X and the amount of the L chain one-amino acid altered form bound was defined as Y, a value of Z (ratio of amounts bound)=Y/X was used.

T1 sequence (P07766 23-126): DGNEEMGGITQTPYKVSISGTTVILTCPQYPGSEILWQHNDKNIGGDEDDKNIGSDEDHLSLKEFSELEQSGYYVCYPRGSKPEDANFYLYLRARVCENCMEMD

Binder	ratio of amounts bound (Z = Y/X) against the unaltered GLS3000 antibody
L chain one-amino acid altered form of GLS3000, V to Y at Kabat position 94 (one-arm antibody: CE115HA000-pE22Hh / Kn010G3 / altered GLS3000-kappa) (antibody, human IgG1, kappa, L234A L235A, N297A, name in Kabat numbering, One-arm antibody (IgG lacking one Fab); also called GLS3000 V94Y) heavy: QVQLVESGGGVVQPGRSLRLSCAASGFTFSNAWMHWVRQAPGKGLEWVAQIKAKSNNYATYYAESVKGRFTISRDDSKNSLYLQMNSLKTEDTAVYYCRYVHYGAYYGVDAWGQGTTVTVSSASTKGPSVFPLAPSSKSTSGGTAALGCLVKDYFPEPVTVSWNSGALTSGVHTFPAVLQSSGLYSLSSVVTVPSSSLGTQTYICNVNHKPSNTKVDKKVEPKSCDKTHTCPPCPAPEAAGGPSVFLFPPKPKDTLMISRTPEVTCVVVDVSHEDPEVKFNWYVDGVEVHNAKTKPREEQYASTYRVVSVLTVLHQDWLNGKEYKCKVSNKALPAPIEKTISKAKGQPREPQVYTLPPSRCELTKNQVSLSCAVKGFYPSDIAVEWESNGQPENNYKTTPPVLDSDGSFFLVSKLTVDKSRWQQGNVFSCSVMHEALHNHYTQKSLSLSPDYKDDDDK EPKSSDKTHTCPPCPAPELLGGPSVFLFPPKPKDTLMISRTPEVTCVVVDVSHEDPEVKFNWYVDGVEVHNAKTKPREEQYNSTYRVVSVLTVLHQDWLNGKEYKCKVSNKALPAPIEKTISKAKGQPREPQVCTLPPSRDELTKNQVSLWCLVKGFYPSDIAVEWESNGQPENNYKTTPPVLDSDGSFFLYSKLTVDKSRWQQGNVFSCSVMHEALHNRYTQKSLSLSP light: DIVMTQSPLSLPVTPGEPASISCRSSQSLVHSNRNTYLHWYQQKPGQAPRLLIYKVSNRFSGVPDRFSGSGSGTDFTLKISRVEAEDVGVYYCGQGTQYPYTFGQGTKLEIKRTVAAPSVFIFPPSDEQLKSGTASVVCLLNNFYPREAKVQWKVDNALQSGNSQESVTEQDSKDSTYSLSSTLTLSKADYEKHKVYACEVTHQGLSSPVTKSFNRGEC	0.63
L chain one-amino acid altered form of GLS3000, Q to Y at Kabat position 90 (one-arm antibody: CE115HA000-pE22Hh / Kn010G3 / altered GLS3000-kappa) (antibody, human IgG1, kappa, L234A L235A, N297A, name in Kabat numbering, One-arm antibody (IgG lacking one Fab); also called GLS3000 Q90Y) heavy: QVQLVESGGGVVQPGRSLRLSCAASGFTFSNAWMHWVRQAPGKGLEWVAQIKAKSNNYATYYAESVKGRFTISRDDSKNSLYLQMNSLKTEDTAVYYCRYVHYGAYYGVDAWGQGTTVTVSSASTKGPSVFPLAPSSKSTSGGTAALGCLVKDYFPEPVTVSWNSGALTSGVHTFPAVLQSSGLYSLSSVVTVPSSSLGTQTYICNVNHKPSNTKVDKKVEPKSCDKTHTCPPCPAPEAAGGPSVFLFPPKPKDTLMISRTPEVTCVVVDVSHEDPEVKFNWYVDGVEVHNAKTKPREEQYASTYRVVSVLTVLHQDWLNGKEYKCKVSNKALPAPIEKTISKAKGQPREPQVYTLPPSRCELTKNQVSLSCAVKGFYPSDIAVEWESNGQPENNYKTTPPVLDSDGSFFLVSKLTVDKSRWQQGNVFSCSVMHEALHNHYTQKSLSLSPDYKDDDDK EPKSSDKTHTCPPCPAPELLGGPSVFLFPPKPKDTLMISRTPEVTCVVVDVSHEDPEVKFNWYVDGVEVHNAKTKPREEQYNSTYRVVSVLTVLHQDWLNGKEYKCKVSNKALPAPIEKTISKAKGQPREPQVCTLPPSRDELTKNQVSLWCLVKGFYPSDIAVEWESNGQPENNYKTTPPVLDSDGSFFLYSKLTVDKSRWQQGNVFSCSVMHEALHNRYTQKSLSLSP light: DIVMTQSPLSLPVTPGEPASISCRSSQSLVHSNRNTYLHWYQQKPGQAPRLLIYKVSNRFSGVPDRFSGSGSGTDFTLKISRVEAEDVGVYYCGYGTQVPYTFGQGTKLEIKRTVAAPSVFIFPPSDEQLKSGTASVVCLLNNFYPREAKVQWKVDNALQSGNSQESVTEQDSKDSTYSLSSTLTLSKADYEKHKVYACEVTHQGLSSPVTKSFNRGEC	0.17
L chain one-amino acid altered form of GLS3000, T to Y at Kabat position 92 (one-arm antibody: CE115HA000-pE22Hh / Kn010G3 / altered GLS3000-kappa) (antibody, human IgG1, kappa, L234A L235A, N297A, name in Kabat numbering, One-arm antibody (IgG lacking one Fab); also called GLS3000 T92Y) heavy: QVQLVESGGGVVQPGRSLRLSCAASGFTFSNAWMHWVRQAPGKGLEWVAQIKAKSNNYATYYAESVKGRFTISRDDSKNSLYLQMNSLKTEDTAVYYCRYVHYGAYYGVDAWGQGTTVTVSSASTKGPSVFPLAPSSKSTSGGTAALGCLVKDYFPEPVTVSWNSGALTSGVHTFPAVLQSSGLYSLSSVVTVPSSSLGTQTYICNVNHKPSNTKVDKKVEPKSCDKTHTCPPCPAPEAAGGPSVFLFPPKPKDTLMISRTPEVTCVVVDVSHEDPEVKFNWYVDGVEVHNAKTKPREEQYASTYRVVSVLTVLHQDWLNGKEYKCKVSNKALPAPIEKTISKAKGQPREPQVYTLPPSRCELTKNQVSLSCAVKGFYPSDIAVEWESNGQPENNYKTTPPVLDSDGSFFLVSKLTVDKSRWQQGNVFSCSVMHEALHNHYTQKSLSLSPDYKDDDDK EPKSSDKTHTCPPCPAPELLGGPSVFLFPPKPKDTLMISRTPEVTCVVVDVSHEDPEVKFNWYVDGVEVHNAKTKPREEQYNSTYRVVSVLTVLHQDWLNGKEYKCKVSNKALPAPIEKTISKAKGQPREPQVCTLPPSRDELTKNQVSLWCLVKGFYPSDIAVEWESNGQPENNYKTTPPVLDSDGSFFLYSKLTVDKSRWQQGNVFSCSVMHEALHNRYTQKSLSLSP light: DIVMTQSPLSLPVTPGEPASISCRSSQSLVHSNRNTYLHWYQQKPGQAPRLLIYKVSNRFSGVPDRFSGSGSGTDFTLKISRVEAEDVGVYYCGQGYQVPYTFGQGTKLEIKRTVAAPSVFIFPPSDEQLKSGTASVVCLLNNFYPREAKVQWKVDNALQSGNSQESVTEQDSKDSTYSLSSTLTLSKADYEKHKVYACEVTHQGLSSPVTKSFNRGEC	0.33
L chain one-amino acid altered form of GLS3000, G to Y at Kabat position 91 (one-arm antibody: CE115HA000-pE22Hh / Kn010G3 / altered GLS3000-kappa) (antibody, human IgG1, kappa, L234A L235A, N297A, name in Kabat numbering, One-arm antibody (IgG lacking one Fab); also called GLS3000 G91Y) heavy: QVQLVESGGGVVQPGRSLRLSCAASGFTFSNAWMHWVRQAPGKGLEWVAQIKAKSNNYATYYAESVKGRFTISRDDSKNSLYLQMNSLKTEDTAVYYCRYVHYGAYYGVDAWGQGTTVTVSSASTKGPSVFPLAPSSKSTSGGTAALGCLVKDYFPEPVTVSWNSGALTSGVHTFPAVLQSSGLYSLSSVVTVPSSSLGTQTYICNVNHKPSNTKVDKKVEPKSCDKTHTCPPCPAPEAAGGPSVFLFPPKPKDTLMISRTPEVTCVVVDVSHEDPEVKFNWYVDGVEVHNAKTKPREEQYASTYRVVSVLTVLHQDWLNGKEYKCKVSNKALPAPIEKTISKAKGQPREPQVYTLPPSRCELTKNQVSLSCAVKGFYPSDIAVEWESNGQPENNYKTTPPVLDSDGSFFLVSKLTVDKSRWQQGNVFSCSVMHEALHNHYTQKSLSLSPDYKDDDDK EPKSSDKTHTCPPCPAPELLGGPSVFLFPPKPKDTLMISRTPEVTCVVVDVSHEDPEVKFNWYVDGVEVHNAKTKPREEQYNSTYRVVSVLTVLHQDWLNGKEYKCKVSNKALPAPIEKTISKAKGQPREPQVCTLPPSRDELTKNQVSLWCLVKGFYPSDIAVEWESNGQPENNYKTTPPVLDSDGSFFLYSKLTVDKSRWQQGNVFSCSVMHEALHNRYTQKSLSLSP light: DIVMTQSPLSLPVTPGEPASISCRSSQSLVHSNRNTYLHWYQQKPGQAPRLLIYKVSNRFSGVPDRFSGSGSGTDFTLKISRVEAEDVGVYYCGQYTQVPYTFGQGTKLEIKRTVAAPSVFIFPPSDEQLKSGTASVVCLLNNFYPREAKVQWKVDNALQSGNSQESVTEQDSKDSTYSLSSTLTLSKADYEKHKVYACEVTHQGLSSPVTKSFNRGEC	0.17
